Values of other authors in article PMC11446229.
pKd: −log10 of the molar value. Where two headings read alike, the source gives them in different places. One block for each substance: values may come before it.

Tests used:
IscS (Escherichia coli) [1] = target: IscS (Escherichia coli) (UniProt P0A6B7)
SufS (Escherichia coli) = SufS (Escherichia coli) (UniProt P77444); assay: surface plasmon resonance
SufS (Bacillus subtilis) = SufS (Bacillus subtilis) (UniProt O32164)
IscS (Escherichia coli) [2] = target: IscS (Escherichia coli) (UniProt P0A6B7); remark: listed apart in the source

Chain of IscS (Escherichia coli) (P0A6B7 whole entry): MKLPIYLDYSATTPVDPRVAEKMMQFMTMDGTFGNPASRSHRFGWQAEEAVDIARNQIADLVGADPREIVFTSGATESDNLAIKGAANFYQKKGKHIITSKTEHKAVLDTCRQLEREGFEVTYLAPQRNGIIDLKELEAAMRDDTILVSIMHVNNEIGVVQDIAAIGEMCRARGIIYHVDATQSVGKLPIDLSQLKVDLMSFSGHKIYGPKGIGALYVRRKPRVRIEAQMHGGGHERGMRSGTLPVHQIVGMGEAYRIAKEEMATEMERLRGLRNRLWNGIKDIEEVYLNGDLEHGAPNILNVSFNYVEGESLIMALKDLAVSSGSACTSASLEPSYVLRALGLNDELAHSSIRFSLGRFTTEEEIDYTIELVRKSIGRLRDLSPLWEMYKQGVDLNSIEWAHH
Chain of TusA (P0A890 whole entry): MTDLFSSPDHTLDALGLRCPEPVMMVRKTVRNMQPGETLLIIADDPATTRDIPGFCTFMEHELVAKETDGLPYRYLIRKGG
Chain of SufS (Escherichia coli) (P77444 whole entry): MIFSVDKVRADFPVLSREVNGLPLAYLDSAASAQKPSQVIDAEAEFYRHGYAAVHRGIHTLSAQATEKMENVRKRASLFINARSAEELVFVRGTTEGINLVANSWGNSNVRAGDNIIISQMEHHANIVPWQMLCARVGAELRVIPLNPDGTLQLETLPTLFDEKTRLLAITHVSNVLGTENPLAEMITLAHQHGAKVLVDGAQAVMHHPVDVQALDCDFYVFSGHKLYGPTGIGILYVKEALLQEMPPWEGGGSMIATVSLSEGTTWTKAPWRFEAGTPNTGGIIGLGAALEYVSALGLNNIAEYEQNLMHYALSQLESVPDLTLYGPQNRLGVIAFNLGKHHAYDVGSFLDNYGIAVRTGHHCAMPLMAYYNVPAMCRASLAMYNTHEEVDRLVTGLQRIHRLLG
Chain of SufS (Bacillus subtilis) (O32164 whole entry): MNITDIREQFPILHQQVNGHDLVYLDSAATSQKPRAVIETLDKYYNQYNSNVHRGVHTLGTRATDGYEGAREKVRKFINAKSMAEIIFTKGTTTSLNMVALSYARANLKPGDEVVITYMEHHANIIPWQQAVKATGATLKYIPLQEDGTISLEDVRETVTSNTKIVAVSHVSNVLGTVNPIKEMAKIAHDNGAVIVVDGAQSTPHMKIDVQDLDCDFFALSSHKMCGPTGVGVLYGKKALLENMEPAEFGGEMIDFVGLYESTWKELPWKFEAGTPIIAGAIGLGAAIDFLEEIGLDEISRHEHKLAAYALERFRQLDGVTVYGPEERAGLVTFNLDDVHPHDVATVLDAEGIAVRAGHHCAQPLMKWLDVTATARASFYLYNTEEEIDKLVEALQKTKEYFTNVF
Chain of SufU (O32163 whole entry): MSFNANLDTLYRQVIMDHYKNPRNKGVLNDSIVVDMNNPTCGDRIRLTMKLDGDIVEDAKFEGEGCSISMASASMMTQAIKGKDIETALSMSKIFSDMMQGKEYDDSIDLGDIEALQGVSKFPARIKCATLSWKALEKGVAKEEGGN
Chain of CyaY (P27838 whole entry): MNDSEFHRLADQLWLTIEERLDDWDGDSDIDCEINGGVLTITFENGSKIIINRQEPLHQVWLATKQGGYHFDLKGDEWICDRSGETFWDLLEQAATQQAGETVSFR
Chain of SufE (P76194 whole entry): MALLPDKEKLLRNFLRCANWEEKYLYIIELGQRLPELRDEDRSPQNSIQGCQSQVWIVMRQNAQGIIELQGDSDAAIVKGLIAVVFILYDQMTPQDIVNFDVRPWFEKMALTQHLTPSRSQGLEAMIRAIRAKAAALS

Substance: CyaY (from UniProt P27838)
pKd (IscS (Escherichia coli) [1]): 4.64

Substance: SufE (from UniProt P76194)
pKd (SufS (Escherichia coli)): 6.44

pKd (SufS (Bacillus subtilis)): 5.52
Substance: SufU (from UniProt O32163)

Substance: TusA (from UniProt P0A890)
pKd (IscS (Escherichia coli) [2]): 5.10
